{
  "source": "paper PMC9477564",
  "about": "(Nature structural & molecular biology, 2021)",
  "proteins": {"B1": {"name": "Get3(D68N) (enzyme)", "chain": "not shown"}},
  "biological_target": "the molecule itself",
  "experiment": "SEC-MALS",
  "data": [
    {"protein": "B1", "values": [
      {"measurement": "stoichiometry N", "result": 2}
    ]}
  ]
}
